# B1: Vacuolar protein sorting-associated protein 16 homolog (Homo sapiens), Q9H269 (parent)
# chain: MDCYTANWNPLGDSAFYRKYELYSMDWDLKEELRDCLVAAAPYGGPIALLRNPWRKEKAASVRPVLDIYSASGMPLASLLWKSGPVVSLGWSAEEELLCVQEDGAVLVYGLHGDFRRHFSMGNEVLQNRVLDARIFHTEFGSGVAILTGAHRFTLSANVGDLKLRRMPEVPGLQSAPSCWTVLCQDRVAHILLAVGPDLYLLDHAACSAVTPPGLAPGVSSFLQMAVSFTYRHLALFTDTGYIWMGTASLKEKLCEFNCNIRAPPKQMVWCSRPRSKERAVVVAWERRLMVVGDAPESIQFVLDEDSYLVPELDGVRIFSRSTHEFLHEVPAASEEIFKIASMAPGALLLEAQKEYEKESQKADEYLREIQELGQLTQAVQQCIEAAGHEHQPDMQKSLLRAASFGKCFLDRFPPDSFVHMCQDLRVLNAVRDYHIGIPLTYSQYKQLTIQVLLDRLVLRRLYPLAIQICEYLRLPEVQGVSRILAHWACYKVQQKDVSDEDVARAINQKLGDTPGVSYSDIAARAYGCGRTELAIKLLEYEPRSGEQVPLLLKMKRSKLALSKAIESGDTDLVFTVLLHLKNELNRGDFFMTLRNQPMALSLYRQFCKHQELETLKDLYNQDDNHQELGSFHIRASYAAEERIEGRVAALQTAADAFYKAKNEFAAKATEDQMRLLRLQRRLEDELGGQFLDLSLHDTVTTLILGGHNKRAEQLARDFRIPDKRLWWLKLTALADLEDWEELEKFSKSKKSPIGYLPFVEICMKQHNKYEAKKYASRVGPEQKVKALLLVGDVAQAADVAIEHRNEAELSLVLSHCTGATDGATADKIQRARAQAQKK
# partner: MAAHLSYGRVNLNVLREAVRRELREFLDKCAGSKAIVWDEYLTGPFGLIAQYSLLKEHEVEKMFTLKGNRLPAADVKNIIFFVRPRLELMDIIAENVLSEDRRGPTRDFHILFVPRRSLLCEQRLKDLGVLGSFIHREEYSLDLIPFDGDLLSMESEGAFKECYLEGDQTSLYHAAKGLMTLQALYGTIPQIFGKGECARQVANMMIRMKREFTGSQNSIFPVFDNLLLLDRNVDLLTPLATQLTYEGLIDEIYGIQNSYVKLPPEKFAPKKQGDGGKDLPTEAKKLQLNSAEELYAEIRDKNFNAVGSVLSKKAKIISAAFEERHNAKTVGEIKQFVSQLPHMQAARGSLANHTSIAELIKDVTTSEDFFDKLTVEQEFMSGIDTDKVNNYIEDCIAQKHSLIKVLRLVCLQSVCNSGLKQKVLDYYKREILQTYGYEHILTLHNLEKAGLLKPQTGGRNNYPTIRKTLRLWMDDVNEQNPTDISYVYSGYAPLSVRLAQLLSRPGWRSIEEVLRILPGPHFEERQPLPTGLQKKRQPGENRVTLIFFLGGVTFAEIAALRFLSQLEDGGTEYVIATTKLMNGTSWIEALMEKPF
# B2: Vacuolar protein sorting-associated protein 33A (Homo sapiens), Q96AX1 (parent)
# chain: B1 partner
# partner: B1 chain
# Variants of: B1
# Settings: with vp33a_human VPS33A
row,Variant,effect of a mutation on the interaction
1,R725E,disrupting interaction
2,A669D,decreasing interaction

# Variants of: B2
# Settings: with vps16_human VPS16, Q9H269
row,Variant,effect of a mutation on the interaction
1,MAAHLSYGRVNLNVLREAVRRELREFLDKCAGSKAIVWDEYLTGPFGLIAQYSLLKEHEVEKMFTLKGNRLPAADVKNIIFFVRPRLELMDIIAENVLSEDRRGPTRDFHILFVPRRSLLCEQRLKDLGVLGSFIHREEYSLDLIPFDGDLLSMESEGAFKECYLEGDQTSLYHAAKGLMTLQALYGTIPQIFGKGECARQVANMMIRMKREFTGSQNSIFPVFDNLLLLDRNVDLLTPLATQLTYEGLIDEIYGIQNSYVKLPPEKFAPKKQGDGGKDLPTEAKKLQLNSAEELYAEIRDKNFNAVGSVLSKKAKIISAAFEERHNAKTVGEIKQFVSQLPHMQAARGSLANHTSIAELIKDVTTSEDFFDKLTVEQEFMSGIDTDKVNNYIEDCIAQKHSLIKVLRLVCLQSVCNSGLKQKVLDYYKREILQTYGYEHKLTLHNLEKAGLLKPQTGGRNNYPTIRKTLRLWMDDVNEQNPTDISYVYSGYAPLSVRLAQLLSRPGWRSIEEVLRILPGPHFEERQPLPTGLQKKRQPGENRVTLIFFLGGVTFAEIAALRFLSQLEDGGTEYVIATTKLMNGTSWIEALMEKPF [I441K],disrupting interaction
2,MAAHLSYGRVNLNVLREAVRRELREFLDKCAGSKAIVWDEYLTGPFGLIAQYSLLKEHEVEKMFTLKGNRLPAADVKNIIFFVRPRLELMDIIAENVLSEDRRGPTRDFHILFVPRRSLLCEQRLKDLGVLGSFIHREEYSLDLIPFDGDLLSMESEGAFKECYLEGDQTSLYHAAKGLMTLQALYGTIPQIFGKGECARQVANMMIRMKREFTGSQNSIFPVFDNLLLLDRNVDLLTPLATQLTYEGLIDEIYGIQNSYVKLPPEKFAPKKQGDGGKDLPTEAKKLQLNSAEELYAEIRDKNFNAVGSVLSKKAKIISAAFEERHNAKTVGEIKQFVSQLPHMQAARGSLANHTSIAELIKDVTTSEDFFDKLTVEQEFMSGIDTDKVNNYIEDCIAQKHSLIKVLRLVCLQSVCNSGLKQKVLDYYKREILQTYGDEHILTLHNLEKAGLLKPQTGGRNNYPTIRKTLRLWMDDVNEQNPTDISYVYSGYAPLSVRLAQLLSRPGWRSIEEVLRILPGPHFEERQPLPTGLQKKRQPGENRVTLIFFLGGVTFAEIAALRFLSQLEDGGTEYVIATTKLMNGTSWIEALMEKPF [Y438D],disrupting interaction
3,MAAHLSYGRVNLNVLREAVRRELREFLDKCAGSKAIVWDEYLTGPFGLIAQYSLLKEHEVEKMFTLKGNRLPAADVKNIIFFVRPRLELMDIIAENVLSEDRRGPTRDFHILFVPRRSLLCEQRLKDLGVLGSFIHREEYSLDLIPFDGDLLSMESEGAFKECYLEGDQTSLYHAAKGLMTLQALYGTIPQIFGKGECARQVANMMIRMKREFTGSQNSIFPVFDNLLLLDRNVDLLTPLATQLTYEGLIDEIYGIQNSYVKLPPEKFAPKKQGDGGKDLPTEAKKLQLNSAEELYAEIRDKNFNAVGSVLSKKAKIISAAFEERHNAKTVGEIKQFVSQLPHMQAARGSLANHTSIAELIKDVTTSEDFFDKLTVEQEFMSGIDTDKVNNYIEDCIAQKHSLIKVLRLVCLQSVCNSGLKQKVLDYYKREILQTYGPEHILTLHNLEKAGLLKPQTGGRNNYPTIRKTLRLWMDDVNEQNPTDISYVYSGYAPLSVRLAQLLSRPGWRSIEEVLRILPGPHFEERQPLPTGLQKKRQPGENRVTLIFFLGGVTFAEIAALRFLSQLEDGGTEYVIATTKLMNGTSWIEALMEKPF [Y438P],disrupting interaction strength
4,MAAHLSYGRVNLNVLREAVRRELREFLDKCAGSKAIVWDEYLTGPFGLIAQYSLLKEHEVEKMFTLKGNRLPAADVKNIIFFVRPRLELMDIIAENVLSEDRRGPTRDFHILFVPRRSLLCEQRLKDLGVLGSFIHREEYSLDLIPFDGDLLSMESEGAFKECYLEGDQTSLYHAAKGLMTLQALYGTIPQIFGKGECARQVANMMIRMKREFTGSQNSIFPVFDNLLLLDRNVDLLTPLATQLTYEGLIDEIYGIQNSYVKLPPEKFAPKKQGDGGKDLPTEAKKLQLNSAEELYAEIRDKNFNAVGSVLSKKAKIISAAFEERHNAKTVGEIKQFVSQLPHMQAARGSLANHTSIAELIKDVTTSEDFFDKLTVEQEFMSGIDTDKVNNYIEDCIAQKHSLIKVLRLVCLQSVCNSGLKQKVLDYYDREILQTYGYEHILTLHNLEKAGLLKPQTGGRNNYPTIRKTLRLWMDDVNEQNPTDISYVYSGYAPLSVRLAQLLSRPGWRSIEEVLRILPGPHFEERQPLPTGLQKKRQPGENRVTLIFFLGGVTFAEIAALRFLSQLEDGGTEYVIATTKLMNGTSWIEALMEKPF [K429D],disrupting interaction
